The values that follow come from patent publication US20190134153A1, “IMMUNOMODULATORY EFFECT OF INHALED KINASE INHIBITOR PEPTIDES IN LUNG” (MOERAE MATRIX, INC., priority 2017, published 2019).

Targets include IR(h) (Homo sapiens, UniProt P06213); CDK1/cyclinB(h) (Homo sapiens, UniProt P06493); PRK2(h) (Homo sapiens, UniProt Q16513); mTOR(h) (Homo sapiens, UniProt P42345); cKit(h) (Homo sapiens, UniProt P10721); CaMKIδ(h) (Homo sapiens, UniProt Q8IU85); Pim-2(h) (Homo sapiens, UniProt Q9P1W9); SRPK1(h) (Homo sapiens, UniProt Q96SB4); FGFR3(h) (Homo sapiens, UniProt P22607).
Experiment in all cases: Kinase Profiling Assay
Common to all, as to format: biochemical
Common to all, as to details: 100 μM

The target of the next assay is T1, Txk(h) (Homo sapiens, UniProt P42681).
T1 sequence (P42681 1-527): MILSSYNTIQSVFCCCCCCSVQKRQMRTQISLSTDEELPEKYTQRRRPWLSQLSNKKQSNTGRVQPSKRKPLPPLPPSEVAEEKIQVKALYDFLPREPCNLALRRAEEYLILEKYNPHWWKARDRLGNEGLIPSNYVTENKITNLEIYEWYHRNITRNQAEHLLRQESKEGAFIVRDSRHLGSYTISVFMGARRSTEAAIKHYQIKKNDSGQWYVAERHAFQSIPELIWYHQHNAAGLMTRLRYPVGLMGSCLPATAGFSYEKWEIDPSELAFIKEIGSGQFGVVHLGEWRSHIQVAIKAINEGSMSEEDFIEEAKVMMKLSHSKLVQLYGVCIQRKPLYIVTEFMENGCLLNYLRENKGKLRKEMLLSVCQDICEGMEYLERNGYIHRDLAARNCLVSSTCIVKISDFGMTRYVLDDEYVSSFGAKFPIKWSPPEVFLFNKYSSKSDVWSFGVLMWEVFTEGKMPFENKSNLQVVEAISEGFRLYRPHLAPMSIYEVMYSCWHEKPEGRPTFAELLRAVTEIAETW

Another assay deals with T2, PKG1α(h) (Homo sapiens, UniProt Q13976).
T2 sequence (Q13976 1-671): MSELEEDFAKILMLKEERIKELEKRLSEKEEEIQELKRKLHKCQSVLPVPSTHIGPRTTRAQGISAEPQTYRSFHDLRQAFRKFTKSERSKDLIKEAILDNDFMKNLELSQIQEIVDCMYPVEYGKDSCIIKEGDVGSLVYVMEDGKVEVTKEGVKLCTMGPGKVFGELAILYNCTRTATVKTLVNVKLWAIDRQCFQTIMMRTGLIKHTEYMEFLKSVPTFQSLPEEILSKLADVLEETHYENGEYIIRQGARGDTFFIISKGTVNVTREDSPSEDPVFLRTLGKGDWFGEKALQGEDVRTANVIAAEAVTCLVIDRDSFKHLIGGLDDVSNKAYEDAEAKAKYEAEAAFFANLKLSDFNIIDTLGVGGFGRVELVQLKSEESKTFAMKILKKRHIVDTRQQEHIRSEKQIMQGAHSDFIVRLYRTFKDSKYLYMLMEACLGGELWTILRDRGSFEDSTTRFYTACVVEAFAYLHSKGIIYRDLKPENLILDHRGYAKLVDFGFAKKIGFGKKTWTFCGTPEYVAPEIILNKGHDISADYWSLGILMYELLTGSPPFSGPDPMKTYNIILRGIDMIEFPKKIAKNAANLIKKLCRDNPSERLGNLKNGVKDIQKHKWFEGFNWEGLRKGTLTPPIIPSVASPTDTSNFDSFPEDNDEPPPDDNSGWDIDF

The next assay has as its target T3, NLK(h) (Homo sapiens, UniProt Q9UBE8).
T3 sequence (Q9UBE8 1-527): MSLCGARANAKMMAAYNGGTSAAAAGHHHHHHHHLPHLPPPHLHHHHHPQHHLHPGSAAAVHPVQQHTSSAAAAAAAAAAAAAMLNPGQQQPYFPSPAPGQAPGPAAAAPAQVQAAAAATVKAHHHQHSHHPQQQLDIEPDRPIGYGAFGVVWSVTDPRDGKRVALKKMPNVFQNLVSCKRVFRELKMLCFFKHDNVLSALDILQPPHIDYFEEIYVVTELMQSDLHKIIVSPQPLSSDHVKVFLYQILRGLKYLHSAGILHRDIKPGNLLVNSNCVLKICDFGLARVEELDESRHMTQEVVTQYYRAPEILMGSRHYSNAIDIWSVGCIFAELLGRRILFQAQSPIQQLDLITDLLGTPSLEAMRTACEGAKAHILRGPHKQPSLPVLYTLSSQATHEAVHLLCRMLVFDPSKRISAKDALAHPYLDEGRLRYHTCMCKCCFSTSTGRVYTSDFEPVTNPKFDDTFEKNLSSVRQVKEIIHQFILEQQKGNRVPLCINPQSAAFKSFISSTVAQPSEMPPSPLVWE

Another assay concerns the target T4, TSSK1(h) (Homo sapiens, UniProt Q9BXA7).
T4 sequence (Q9BXA7 1-367): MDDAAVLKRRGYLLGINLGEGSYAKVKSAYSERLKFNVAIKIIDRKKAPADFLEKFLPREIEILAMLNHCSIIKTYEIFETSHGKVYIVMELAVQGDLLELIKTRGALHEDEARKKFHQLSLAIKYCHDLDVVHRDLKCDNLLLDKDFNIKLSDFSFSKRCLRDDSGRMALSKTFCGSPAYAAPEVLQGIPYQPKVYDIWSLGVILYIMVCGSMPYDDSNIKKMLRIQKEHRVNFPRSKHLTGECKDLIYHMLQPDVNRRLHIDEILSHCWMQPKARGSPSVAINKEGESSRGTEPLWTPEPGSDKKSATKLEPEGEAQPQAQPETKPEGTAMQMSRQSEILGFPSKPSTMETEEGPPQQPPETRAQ

Chain of SRPK1(h) (Q96SB4 whole entry): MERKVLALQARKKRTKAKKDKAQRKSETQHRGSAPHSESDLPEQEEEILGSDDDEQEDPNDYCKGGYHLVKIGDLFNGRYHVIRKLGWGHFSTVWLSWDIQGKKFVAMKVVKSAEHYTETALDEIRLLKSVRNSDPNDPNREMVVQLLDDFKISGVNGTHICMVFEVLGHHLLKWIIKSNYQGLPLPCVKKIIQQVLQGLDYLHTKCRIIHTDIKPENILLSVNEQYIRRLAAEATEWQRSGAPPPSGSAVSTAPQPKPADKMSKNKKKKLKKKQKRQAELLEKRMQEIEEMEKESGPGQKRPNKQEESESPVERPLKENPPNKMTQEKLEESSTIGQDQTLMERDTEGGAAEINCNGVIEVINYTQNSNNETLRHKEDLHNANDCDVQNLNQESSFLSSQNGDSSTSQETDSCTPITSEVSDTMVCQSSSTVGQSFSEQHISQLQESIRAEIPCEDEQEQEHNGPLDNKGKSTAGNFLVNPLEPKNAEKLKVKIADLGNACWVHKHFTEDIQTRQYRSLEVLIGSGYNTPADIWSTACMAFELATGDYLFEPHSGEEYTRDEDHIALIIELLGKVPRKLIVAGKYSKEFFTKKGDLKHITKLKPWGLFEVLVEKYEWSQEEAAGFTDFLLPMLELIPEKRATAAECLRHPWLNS
Chain of CDK1/cyclinB(h) (P06493 whole entry): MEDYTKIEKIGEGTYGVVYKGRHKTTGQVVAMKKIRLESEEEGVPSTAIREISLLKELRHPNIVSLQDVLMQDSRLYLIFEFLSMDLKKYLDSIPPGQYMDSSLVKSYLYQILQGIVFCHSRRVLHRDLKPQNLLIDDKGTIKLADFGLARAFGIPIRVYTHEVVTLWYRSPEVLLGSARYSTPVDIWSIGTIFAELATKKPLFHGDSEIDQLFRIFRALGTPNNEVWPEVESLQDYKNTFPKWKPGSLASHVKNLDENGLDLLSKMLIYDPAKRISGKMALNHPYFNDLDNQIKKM
Chain of CDK1/cyclinB(h) (P14635 whole entry partner): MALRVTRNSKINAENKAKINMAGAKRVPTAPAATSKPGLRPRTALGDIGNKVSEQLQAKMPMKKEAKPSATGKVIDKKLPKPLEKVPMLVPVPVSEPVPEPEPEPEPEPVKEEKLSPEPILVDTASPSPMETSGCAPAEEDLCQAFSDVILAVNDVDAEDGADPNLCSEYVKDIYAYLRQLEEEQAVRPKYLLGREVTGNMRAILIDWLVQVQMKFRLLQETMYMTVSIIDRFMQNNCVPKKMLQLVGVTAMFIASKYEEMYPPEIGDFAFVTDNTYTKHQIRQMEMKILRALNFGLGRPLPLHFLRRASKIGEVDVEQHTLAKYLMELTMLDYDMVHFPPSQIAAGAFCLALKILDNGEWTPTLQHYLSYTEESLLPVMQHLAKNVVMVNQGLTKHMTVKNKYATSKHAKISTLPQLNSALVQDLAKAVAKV
Chain of CaMKIδ(h) (Q8IU85 whole entry): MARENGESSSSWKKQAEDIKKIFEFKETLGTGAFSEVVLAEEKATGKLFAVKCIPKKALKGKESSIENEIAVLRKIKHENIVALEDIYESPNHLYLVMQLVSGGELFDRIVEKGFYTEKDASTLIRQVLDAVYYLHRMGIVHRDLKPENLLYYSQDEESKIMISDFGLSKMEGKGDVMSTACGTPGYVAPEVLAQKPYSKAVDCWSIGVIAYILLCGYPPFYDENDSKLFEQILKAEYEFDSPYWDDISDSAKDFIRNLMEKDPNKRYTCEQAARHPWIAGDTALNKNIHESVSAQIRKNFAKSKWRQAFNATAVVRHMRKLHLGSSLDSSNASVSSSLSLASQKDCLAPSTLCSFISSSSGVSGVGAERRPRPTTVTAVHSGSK
Chain of FGFR3(h) (P22607 23-806): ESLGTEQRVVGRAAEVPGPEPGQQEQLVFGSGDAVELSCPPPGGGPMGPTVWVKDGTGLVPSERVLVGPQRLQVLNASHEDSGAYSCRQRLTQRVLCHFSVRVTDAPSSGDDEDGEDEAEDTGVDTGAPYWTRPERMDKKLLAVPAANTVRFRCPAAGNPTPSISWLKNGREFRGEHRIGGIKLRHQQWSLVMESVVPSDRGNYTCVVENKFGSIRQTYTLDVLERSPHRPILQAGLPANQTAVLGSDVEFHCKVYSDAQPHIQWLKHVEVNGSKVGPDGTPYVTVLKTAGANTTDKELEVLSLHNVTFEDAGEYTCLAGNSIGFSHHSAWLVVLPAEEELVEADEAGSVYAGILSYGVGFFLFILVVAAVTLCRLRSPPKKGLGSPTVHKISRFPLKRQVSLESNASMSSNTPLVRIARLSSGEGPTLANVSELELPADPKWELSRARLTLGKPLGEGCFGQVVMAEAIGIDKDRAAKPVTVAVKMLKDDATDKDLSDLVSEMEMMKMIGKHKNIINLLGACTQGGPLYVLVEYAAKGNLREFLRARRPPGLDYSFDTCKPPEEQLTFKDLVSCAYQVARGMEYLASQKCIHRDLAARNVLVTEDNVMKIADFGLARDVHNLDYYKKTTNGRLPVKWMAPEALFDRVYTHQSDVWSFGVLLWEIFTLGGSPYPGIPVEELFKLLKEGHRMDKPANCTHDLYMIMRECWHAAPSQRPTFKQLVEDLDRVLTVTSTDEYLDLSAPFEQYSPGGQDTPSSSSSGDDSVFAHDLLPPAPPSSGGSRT
Chain of Pim-2(h) (Q9P1W9 whole entry): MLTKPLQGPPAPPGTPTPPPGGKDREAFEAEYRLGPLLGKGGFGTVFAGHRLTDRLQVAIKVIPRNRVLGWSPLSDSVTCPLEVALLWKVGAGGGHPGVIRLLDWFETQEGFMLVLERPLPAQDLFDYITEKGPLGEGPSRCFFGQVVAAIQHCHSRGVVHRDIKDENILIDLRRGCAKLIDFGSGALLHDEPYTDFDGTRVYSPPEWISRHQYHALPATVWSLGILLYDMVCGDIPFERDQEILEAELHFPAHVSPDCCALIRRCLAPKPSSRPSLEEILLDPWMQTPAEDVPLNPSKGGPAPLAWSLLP
Chain of PRK2(h) (Q16513 whole entry): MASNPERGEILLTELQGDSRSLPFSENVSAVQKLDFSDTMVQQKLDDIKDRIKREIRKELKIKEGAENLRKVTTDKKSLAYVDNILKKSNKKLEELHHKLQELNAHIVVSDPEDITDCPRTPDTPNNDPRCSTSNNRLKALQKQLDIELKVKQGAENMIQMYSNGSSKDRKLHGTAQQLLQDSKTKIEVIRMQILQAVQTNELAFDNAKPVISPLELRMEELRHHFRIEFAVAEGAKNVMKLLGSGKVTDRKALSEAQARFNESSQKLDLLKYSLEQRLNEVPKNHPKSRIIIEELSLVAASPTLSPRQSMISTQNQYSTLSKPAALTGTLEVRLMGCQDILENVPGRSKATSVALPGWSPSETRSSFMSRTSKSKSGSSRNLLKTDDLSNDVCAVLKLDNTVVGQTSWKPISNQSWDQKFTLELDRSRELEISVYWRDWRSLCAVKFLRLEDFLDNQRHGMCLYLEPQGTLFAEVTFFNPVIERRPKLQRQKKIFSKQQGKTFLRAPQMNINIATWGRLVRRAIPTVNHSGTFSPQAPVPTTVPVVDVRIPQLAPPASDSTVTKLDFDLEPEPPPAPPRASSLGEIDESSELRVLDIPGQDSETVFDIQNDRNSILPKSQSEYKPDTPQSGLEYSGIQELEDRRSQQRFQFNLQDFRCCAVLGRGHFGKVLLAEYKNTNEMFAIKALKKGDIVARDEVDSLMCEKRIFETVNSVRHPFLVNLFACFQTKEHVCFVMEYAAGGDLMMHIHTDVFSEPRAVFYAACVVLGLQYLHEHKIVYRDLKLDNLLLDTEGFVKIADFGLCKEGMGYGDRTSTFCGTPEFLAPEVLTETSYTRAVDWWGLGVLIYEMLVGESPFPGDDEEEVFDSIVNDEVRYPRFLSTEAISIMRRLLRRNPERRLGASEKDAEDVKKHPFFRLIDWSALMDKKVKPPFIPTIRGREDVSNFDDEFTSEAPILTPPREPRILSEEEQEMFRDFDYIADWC

As for HRRIKAWLKKIKALARQLGVAA [MMI-0500], the “% activity” value in the assay with Txk(h) stood at 10%; with IR(h) it was 95%; in the assay with CDK1/cyclinB(h), 57%; with PRK2(h), 7%; in the assay with mTOR(h), 135%; with cKit(h) it was 45%. In addition, the “% activity” value in the assay with PKG1α(h) is listed as 25%; in the assay with NLK(h) it was 19%; with CaMKIδ(h), 0%; in the assay with TSSK1(h) it was 46%; with Pim-2(h), 46%; in the assay with SRPK1(h) it was 80%. Further, the “% activity” value with FGFR3(h) came to 10%.
Take YARAAARQARAKALNRQLGVA [MMI-0200]: the “% activity” value in the assay with Txk(h) is 98%; with IR(h) it was 90%; with PRK2(h), 74%; with mTOR(h), 110%; with cKit(h) it was 110%; with PKG1α(h), 70%. Besides, the “% activity” value amounted to 47% with CaMKIδ(h); 98% with TSSK1(h); 74% with Pim-2(h); 93% in the assay with SRPK1(h); 208% in the assay with FGFR3(h).
Take KAFAKLAARLYRKALARQLGVAA [MMI-0400]: the “% activity” value with Txk(h) was determined as 37%; in the assay with IR(h), 85%; in the assay with CDK1/cyclinB(h), 74%; with PRK2(h), 27%; with mTOR(h), 93%; in the assay with cKit(h), 43%. Moreover, the “% activity” value in the assay with PKG1α(h) came to 58%; with NLK(h) it was 90%; in the assay with CaMKIδ(h), 17%; in the assay with TSSK1(h), 79%; with Pim-2(h), 92%; in the assay with SRPK1(h), 96%. The “% activity” value with FGFR3(h) was 0%.
For FAKLAARLYRKALARQLGVAA [MMI-0300], the “% activity” value in the assay with Txk(h) amounted to 48%; with IR(h), 96%; with CDK1/cyclinB(h), 73%; with PRK2(h), 33%; with mTOR(h), 91%; with cKit(h), 53%. The “% activity” value with PKG1α(h) came out at 64%; with NLK(h), 87%; with CaMKIδ(h), 10%; with TSSK1(h), 79%; with Pim-2(h) it was 76%; in the assay with SRPK1(h), 90%.
